Assay results reported in PMC2834698.

Molecular target: Arabidopsis thaliana transthyretin-like protein (TTL), 311-residue cytoplasmic isoform (Arabidopsis thaliana)
Test: SEC + other: sucrose density gradient rate zonal ultracentrifugation; Siegel and Monty method: Stokes radius from analytical gel filtration (Superose 12 10/300, 0.5 ml/min) and sedimentation coefficient from 5 to 20% sucrose gradients (25 h 15 min, 260800 g, SW41 Ti), both in buffer C (150 mM NaCl, EDTA, 20 mM Tris-HCl, pH 8.0); native mass 137.3 kDa against a subunit of 36.6 kDa

stoichiometry N: 4
Substance: Arabidopsis thaliana transthyretin-like protein (TTL), 311-residue cytoplasmic isoform (enzyme)
